Consider nine molecules from publication PMC10831263 (The Journal of Biological Chemistry, 2023).

Positions count from the first letter of the chain named. Names and notes keep the numbering of the source.

One series addresses T1, GST-tagged FTH (human, UniProt P02794 1-183).
T1 construct: ferritin heavy chain 1 (FTH), human; also called GST-FTH; ferritin heavy chain 1; not shown: GST, N-terminal, kept
Nature of the series: pull-down; His-pulldown; His-tagged NCOA4 (383–522nd) WT or mutants and GST-tagged FTH, each expressed in E. coli and purified; read by immunoblotting. The settings on record: both partners purified. For orientation: Immunoblotting shows a protein as a band on a membrane.

Another series deals with T2, GST-HERC2 (2540–2700th) (human, UniProt O95714 2540-2700).
T2 construct: also called HECT and RLD domains-containing E3 ubiquitin protein ligase 2; not shown: GST, N-terminal, kept
T2 sequence (looked up): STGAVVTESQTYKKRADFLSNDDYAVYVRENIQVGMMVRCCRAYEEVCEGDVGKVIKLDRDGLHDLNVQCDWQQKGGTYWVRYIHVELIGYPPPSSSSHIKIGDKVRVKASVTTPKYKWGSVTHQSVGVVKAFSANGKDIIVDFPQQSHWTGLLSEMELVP
Nature of the series: pull-down; GST pull-down of HERC2 with Fe-S-bound NCOA4 (383–522nd): freshly purified or reconstituted. The note with it: both partners purified.

Series [1] deals with the molecule itself. The experiment in a line: nonreducing gel electrophoresis; purified his-tagged NCOA4 (383–522nd) WT or mutants on a nonreducing gel, with or without β-ME (10 mM) or DTT (5 mM); the reductants converted the dimer into monomers.

T1 sequence (P02794 whole entry): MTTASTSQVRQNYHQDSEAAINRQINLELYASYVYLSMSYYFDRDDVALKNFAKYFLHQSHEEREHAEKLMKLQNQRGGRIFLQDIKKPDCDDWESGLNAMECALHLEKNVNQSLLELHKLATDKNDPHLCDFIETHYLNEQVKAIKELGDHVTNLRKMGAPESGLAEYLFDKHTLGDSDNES

B1: his-tagged NCOA4 (383–522nd) recombinant protein, WT (domain or fragment, human, UniProt Q13772-1 383-522, looked up)
chain: SMVTEDWLVQNHQDPCKVEEVCRANEPCTSFAECVCDENCEKEALYKWLLKKEGKDKNGMPVEPKPEPEKHKDSLNMWLCPRKEVIEQTKAPKAMTPSRIADSFQVIKNSPLSEWLIRPPYKEGSPKEVPGTEDRAGKQK
notes: Expressed from pQE80L; also called purified NCOA4; not shown: His6, N-terminal, kept
For B1, the binding result with GST-tagged FTH and in the series with GST-HERC2 (2540–2700th) was “binds” each time.

B2: his-tagged NCOA4 (383–522nd) C422A (domain or fragment, human, UniProt Q13772-1 383-522, looked up)
chain: B1 chain with C40A
Take B2: the binding result in series [1] was “binds”.

B3: his-tagged NCOA4 (383–522nd) C418A (domain or fragment, human, UniProt Q13772-1 383-522, looked up)
chain: B1 chain with C36A
In the case of B3, in series [1], the binding result is reported as “binds”.

B4: his-tagged NCOA4 (383–522nd) C404A (domain or fragment, human, UniProt Q13772-1 383-522, looked up)
chain: B1 chain with C22A
In the case of B4, the binding result in series [1] is on record as “binds”.

B5: his-tagged NCOA4 (383–522nd) C416A (domain or fragment, human, UniProt Q13772-1 383-522, looked up)
chain: B1 chain with C34A
As to B5, the binding result in series [1] is listed as “binds”.

B6: his-tagged NCOA4 (383–522nd) C462A (domain or fragment, human, UniProt Q13772-1 383-522, looked up)
chain: B1 chain with C80A
With B6, in series [1], the binding result is given as “binds”.

B7: his-tagged NCOA4 (383–522nd) C410A (domain or fragment, human, UniProt Q13772-1 383-522, looked up)
chain: B1 chain with C28A
Regarding B7, the binding result in series [1] is on record as “binds”.

B8: his-tagged NCOA4 (383–522nd) 4C > A (domain or fragment, human, UniProt Q13772-1 383-522, looked up)
chain: B1 chain with C22A, C28A, C34A, C40A
notes: also called four cysteine residues substitution by alanine; not shown: His6, N-terminal, kept
As for B8, in the series with GST-tagged FTH, the binding result is “binds”.

B9: his-tagged NCOA4 (383–522nd) C398S (domain or fragment, human, UniProt Q13772-1 383-522, looked up)
chain: B1 chain with C16S
notes: C398A was insoluble, so C398S was made in its place
On to B9, for which the binding result in series [1] is reported as “binds”.
